# The supplement of paper PMC12042874
# ± gives the uncertainty stated by the source.
# Test: amyloid nucleation score (Sup35N fusion, yeast selection) (log enrichment); library NNK2; higher = more nucleation; inactive = no reads after selection
# Summary of the method: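 Using DiMSum, nucleation scores were taken as the log enrichment of output over input reads, centred on the mode score of non-aggregating sequences. The input and output reads came from Illumina sequencing of plasmid inserts, with sequences under 100 input reads excluded. The yeast were psi-negative, expressed Sup35N fused to peptides of 20 random codons, were induced with 100 μM copper sulfate for 24 hours, and were grown 7 days at 30°C on medium lacking adenine and uracil.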
row,Substance,amyloid nucleation score
1,CRDLKFYAGTRWGKCCMYSA,-0.476 ± 0.32
2,CREEDGLLDVSYKRSDMGGS,-0.267 ± 0.65
3,CRFRGLRYNRWDQNDVFAGV,0.349 ± 0.44
4,CRRCTIGLISDRGVLAAEES,-0.403 ± 0.63
5,CRRFSEYNVLCSDLNPIMVL,0.404 ± 0.66
6,CRVFWKLKKRSIMHLPFDSG,1.32 ± 0.34
7,CSALLYW,1.29 ± 0.61
8,CSCMDRFL,1.41 ± 0.15
9,CSCNRLDYWAVNGRARRFKL,0.932 ± 0.81
10,CSFNKTALIAFNSNGGEYEH,-2.66 ± 0.75
11,CSGHNRYYPRRGMDQHMLVF,0.266 ± 0.2
12,CSHITYQMCFILLNTAYFSH,-0.159 ± 1.1
13,CSIMFIG,0.858 ± 0.47
14,CSIPFSVWDCLSWYCKNIRI,-1.46 ± 0.62
15,CSITRLGSVHYLSRYIFV,3.74 ± 0.083
16,CSKRSQTKVITHICARGEVS,0.827 ± 0.28
17,CSLLVTLWE,0.554 ± 0.23
18,CSSFTQGCKCSF,-0.139 ± 0.37
19,CSSRNILDWKFVFFVCYFT,3.41 ± 0.12
20,CTFPALSLPGPVSTQQSSGQ,3.47 ± 0.06
21,CTIIFNLLLAD,7.396 ± 0.055
22,CTLLTNITLFRGLHGTKFFC,2.43 ± 0.14
23,CTNMREFKGSLKAHIVLVVV,-0.479 ± 0.32
24,CTPDLLSVNFDVVVLQW,-0.58 ± 0.55
25,CTTFSFADIEFVMKRTRAIL,inactive

row,Substance,amyloid nucleation score
1,CVFPRFYIHDFSTLGTMYTL,4.24 ± 0.12
2,CVKKEIMLFAFDALKSLLGR,-0.742 ± 1.1
3,CVLHEPLYS,-0.432 ± 0.3
4,CVLMAMNFRCLNSTETTLLG,inactive
5,CVNVTLASFQVLNNPLHRSF,4.896 ± 0.041
6,CVPVYVKRIECHLPSGCTAV,-0.345 ± 0.3
7,CVRDTLIETFHSVFNPHRRV,0.983 ± 0.29
8,CVSGNMYRLGVINW,0.156 ± 0.29
9,CWFGCVPDLTTGLGASCGRD,0.606 ± 0.2
10,CWFSTTGYDPLEPSFNLVLR,-1.58 ± 0.54
11,CWFYVMGLWHVLLLCWS,inactive
12,CWKVREENRVVRCTHSYFLE,-1.03 ± 0.55
13,CWLEKLGGSRCFNFNDNKLP,-1.19 ± 0.75
14,CWQMRGKLFHS,0.983 ± 0.14
15,CWRRDNNRGCARRSGVAPAK,0.495 ± 0.24
16,CYHSQNDCHKVTWCFPYLAH,-0.449 ± 0.44
17,CYLLN,-0.805 ± 0.44
18,CYNALWLFGNHAKTAHGLGH,0.709 ± 0.48
19,CYRDMALGGCNVNVQLFVEA,-0.049 ± 0.54
20,CYRNAT,0.475 ± 0.2
21,CYSLYLRS,-0.018 ± 1.1
22,DAGDVRQVKEAGLMAGS,0.527 ± 0.21
23,DALVFSPCRALWTLLSVCEG,0.896 ± 0.3
24,DAVDFGISVSIHRSVREGWR,4.89 ± 0.11
25,DAYQEKCLCFVHRCYAQGRC,0.163 ± 0.39

row,Substance,amyloid nucleation score
1,DCHRNGSFRGKDGDVLYRSS,-0.397 ± 0.78
2,DCHSMQFVVSFNT,-0.705 ± 1.1
3,DCNTCKDKPWNAINQPNKKA,0.121 ± 0.23
4,DDERYDVPLWSFGVRYYISG,-0.384 ± 0.54
5,DDFRQVKREDWHWSLSAVLF,0.36 ± 0.62
6,DDRIGSRVYVRVMNTKFFIK,6.406 ± 0.045
7,DDYVWCSYRLMFKSSHEALL,-1.24 ± 1.1
8,DEMVDAFYYSAM,0.35 ± 0.8
9,DENFHAEGWRCFVYPFY,-0.373 ± 0.27
10,DFCRQLWTKNKNVLRFICNS,-0.342 ± 1
11,DFFRRFI,-0.742 ± 0.48
12,DFMIKSISVLFTVSISSNRV,-1.69 ± 0.73
13,DFPRRWSWFITRESWGVWRT,1.65 ± 0.34
14,DFTFWCEYSSSPVKKYVIDC,0.736 ± 0.18
15,DFVIESLNMYYWCTRGVVKK,inactive
16,DFWTARFGIGCCGVPCDRFF,-0.507 ± 0.79
17,DFYACTWKDSCCGHEGRSAC,0.634 ± 0.43
18,DGDLTLNWVRSRLPLKNFRG,0.144 ± 0.54
19,DGEYPHQYSLEVLLLRLRH,5.071 ± 0.049
20,DGFRVCDMFGHAWGVENIPF,0.086 ± 0.31
21,DGGNDWRTKYSGTPVVWGTV,1.73 ± 0.13
22,DGSDREPKVSALWLHVRRTA,2.17 ± 0.13
23,DGTYISKVNSRCVEDGARPR,1.38 ± 0.34
24,DGVCYSRVNYIPISMHVVYR,4.87 ± 0.08
25,DGVSAFVCTFRDAVVRSAME,4.29 ± 0.045

row,Substance,amyloid nucleation score
1,DGYIELS,0.302 ± 0.41
2,DHFYWSNLGG,inactive
3,DHMRHGCGYHLWFSGLSWRF,inactive
4,DHVYICSSFAPKSTAMLC,1.55 ± 0.38
5,DIFALYFA,-1.16 ± 0.63
6,DIIFVDALMSVTSVQQNLH,-0.388 ± 0.55
7,DIMLAPHNSVDNGSRKEYGA,0.424 ± 0.64
8,DIMYPYWMVR,-0.667 ± 0.76
9,DIPPKDLLGVFIDDEIREYC,-0.436 ± 0.76
10,DIRCDLGRVFN,-0.17 ± 0.79
11,DIRSRINMLRYTFF,inactive
12,DIYLLKIDRSGKCWPTTVDL,-0.067 ± 0.41
13,DKGWLANDNLDKDLHQIPYA,0.515 ± 0.35
14,DKHYINASVSHEPSKNR,-0.724 ± 0.46
15,DKPTCETTV,-0.659 ± 0.49
16,DKPVSTH,-0.861 ± 1
17,DKRPALFVYSVCRVSSIR,-1.26 ± 0.49
18,DKSAVMVFNRRYVPWFGIRY,inactive
19,DKSSMYSSTMRPL,0.06 ± 0.65
20,DKVFDLTQMGFL,inactive
21,DKYGFSSVSGVTEDFVDGLM,0.736 ± 0.6
22,DLAPLLR,0.132 ± 0.56
23,DLDFIKDLTAKLY,-0.183 ± 1
24,DLKRTFR,-0.487 ± 0.79
25,DLLGIEPTTVCFYFDTDIRH,2.9 ± 0.07

row,Substance,amyloid nucleation score
1,DLRRDQRATTERGRVPVVKH,4.817 ± 0.045
2,DLTCRTSLSRGWKVLASSNG,0.413 ± 0.31
3,DLTHWSANSTCSSCVEFHLR,3.99 ± 0.086
4,DLVYDCKGFCIRLLLG,-1.63 ± 1
5,DLYVLSWLYLGGEPNCVRF,0.446 ± 0.26
6,DMFRWNSYCSIVMLYCYAYD,4.62 ± 0.063
7,DMGNDLRDRVRGFSALMLWR,inactive
8,DMQGYFCSLTLMFMFRPRIM,inactive
9,DNEMRYGDRSSVFI,1.32 ± 0.24
10,DNLLSPTSRKFRVDTILL,-0.256 ± 0.4
11,DPRLSSLSCMGRWHHNYHAS,0.772 ± 0.5
12,DPVRWRVKFFFYDSEVCGPL,2.73 ± 0.17
13,DPVSYILDWASRGNS,0.523 ± 0.64
14,DPYYLKGYCVWEEYSWCPS,-0.749 ± 0.55
15,DQVLHCSLDQSVGGSDQL,inactive
16,DRGTGNRGSCDRSYLDSGKV,0.963 ± 0.29
17,DRIYNVGRSRTGRSLFYSPV,-1.19 ± 0.38
18,DRLVSLAYLMWFGKMGWDKG,0.05 ± 0.51
19,DRVCGLPNVHSCVCYFAGRN,5.47 ± 0.076
20,DSIGVVFEVKTGKARASGVV,0.171 ± 0.49
21,DSLKFSLRLVHLPLPIYGCC,1.5 ± 0.43
22,DSLMQVNWN,1.01 ± 0.36
23,DSLNCGSRCKSAGDSNRWSL,0.11 ± 0.65
24,DSNTSSDILGLSYLYGRTRL,0.168 ± 0.37
25,DSPFLQNLMWNIFVGRIATM,-0.272 ± 0.31

row,Substance,amyloid nucleation score
1,DSRTFGITYYNDVLITGLCR,-0.709 ± 0.39
2,DSSVQRRLS,0.121 ± 0.56
3,DSWNRYNPFCPWKSYVTDSH,-0.926 ± 0.76
4,DTGNMVSEKPGGILSDMGRI,inactive
5,DTGSPDGWAQWLPYSEFLGM,-0.283 ± 0.65
6,DTIGAATLTITVWNSFMVGP,4.15 ± 0.076
7,DTLFLTCPSLHH,0.811 ± 0.58
8,DTLWEGSLLNVYFVDVIRST,0.06 ± 0.55
9,DTNLFTGGSLSVFYFDDGDK,2.96 ± 0.15
10,DTNVCHIYFGFELLSRFFCN,0.252 ± 0.36
11,DTPITDCELPAYFQVITNWL,0.007 ± 0.76
12,DTTALHRVTASTLGHRFSLG,0.58 ± 0.56
13,DTVLAI,0.035 ± 0.74
14,DVCLHMGKYSNVLILGHNWS,-0.449 ± 0.36
15,DVFYRSVPMQVGWQVMWACD,0.703 ± 0.15
16,DVGCAMPSYTRGWYVYSNLM,0.58 ± 0.42
17,DVKIVYSKTDRWRMGRSPES,1.55 ± 0.2
18,DVKWA,1.1 ± 0.21
19,DVLVINKLHLRWAGFDARGI,5.05 ± 0.1
20,DVMYFGASLGTFVGVIADWE,inactive
21,DVSGLNIVERGYKRCTGGND,-0.054 ± 0.62
22,DVWIFMTECGDAV,0.743 ± 0.81
23,DVWWTYMYFKMSTVHAMSLF,-0.113 ± 1.1
24,DWRSLRLGVK,-0.065 ± 0.32
25,DYGNLYL,-0.291 ± 1.1

row,Substance,amyloid nucleation score
1,DYIDKPELLSVLGTRQMKCF,0.241 ± 0.35
2,DYLKRDVSTFSLS,-0.021 ± 0.29
3,DYNKLVAWALCLCFFRFRRN,0.762 ± 0.81
4,DYNSNMSFSRLCTRVTCHSM,inactive
5,DYSVEGHLRMLLNKKRVGVE,-1.01 ± 0.76
6,EALSLLSR,-0.22 ± 1
7,EAWADGSIMYSYTRPDGDKV,0.421 ± 0.24
8,ECRGCAWA,3.95 ± 0.046
9,ECVRCC,-1.11 ± 0.76
10,EDFVLWLMW,-0.641 ± 0.63
11,EEQKSYSENMPV,-0.21 ± 0.56
12,EERVCLSPSDSSSRMLGQKV,-0.078 ± 0.35
13,EFCIHVSVLINPRGSNYDKW,-0.487 ± 1.1
14,EFDQWFLLFSLRSSFGLYLF,0.078 ± 0.25
15,EFRTAFLVI,0.138 ± 1.1
16,EFRWYNFLWY,-0.618 ± 1.1
17,EGTCPSSGNILSWKSFCVVG,-0.519 ± 0.25
18,EGTTKFDWHYYQVSTGNFAS,1.05 ± 0.51
19,EGVKF,0.436 ± 0.8
20,EGVKLECVLYVYDHSARRLL,inactive
